Results on 2 molecules are retold here after patent publication US20030091568A1, “Inhibitors for the formation of soluble human CD23” (priority 2000, published 2003).

The target of experiment [1] is T1, ADAM9 (Mus musculus, UniProt Q61072).
T1 construct: expressed in transfected cells; host or cells: CHO AA8 Tet-Off cells (Clontech), clone 3, co-expressing human CD23b
T1 sequence (Q61072 206-845 limits assumed): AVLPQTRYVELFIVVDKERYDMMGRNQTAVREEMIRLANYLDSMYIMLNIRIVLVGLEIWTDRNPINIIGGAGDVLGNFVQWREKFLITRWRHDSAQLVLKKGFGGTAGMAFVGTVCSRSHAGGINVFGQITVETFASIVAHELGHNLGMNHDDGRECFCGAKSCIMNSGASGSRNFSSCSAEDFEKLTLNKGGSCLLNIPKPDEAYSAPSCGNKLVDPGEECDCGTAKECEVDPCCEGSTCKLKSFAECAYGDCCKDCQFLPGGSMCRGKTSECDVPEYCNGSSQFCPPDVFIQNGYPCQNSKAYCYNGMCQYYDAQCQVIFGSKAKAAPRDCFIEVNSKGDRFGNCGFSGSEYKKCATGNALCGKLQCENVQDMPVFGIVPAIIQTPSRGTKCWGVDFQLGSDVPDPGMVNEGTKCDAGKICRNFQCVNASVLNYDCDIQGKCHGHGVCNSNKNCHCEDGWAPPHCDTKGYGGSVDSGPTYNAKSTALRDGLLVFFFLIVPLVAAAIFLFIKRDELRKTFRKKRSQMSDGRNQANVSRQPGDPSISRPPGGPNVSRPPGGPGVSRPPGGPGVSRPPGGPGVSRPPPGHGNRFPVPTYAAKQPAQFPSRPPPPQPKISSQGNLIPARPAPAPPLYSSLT
Kind of experiment: CD23 shedding in CHO AA8 clone 3 cells with tet-regulated ADAM9 "On" (s-CD23 ELISA). In kind it is cell-based, murine. Particulars: CHO AA8 clone 3, absence of tetracycline (ADAM9 "On"), 16 hours; 2 μM batimastat or 20 nM-1 μM TIMP; FIG. 3A. On the procedure:
CHO AA8 cells (Clontech), which constitutively express human CD23b and a tet regulatable ADAM9 (clone 3, described above), were cultured in the absence of tetracycline (ADAM9 expression “On”) as well as the presence or absence of the metalloproteinase inhibitor batimastat (BB-94, British Biotechnology) as a broad spectrum MMP inhibitor, as well as various concentrations of either TIMP-1, TIMP-2 or TIMP-3. After 16 hours, aliquots of the respective culture supernatants were analysed by ELISA for the formation of s-CD23 (The Binding Site).
[…] cells were cultured in the presence (ADAM9 expression “Off”) or absence (ADAM9 expression “On”) of tetracylin (Tc). Under both conditions, the influence of batimastat (BB-94) on CD23 shedding was analyzed. The concentration of s-CD23 in the culture supernatants was determined by ELISA. In parallel, the produced s-CD23 cleavage products were analyzed by Western blot analyses (FIG. 4). Untransfected CHO AA8 cells (WT) were used as a negative control in the ELISA assays. In the absence of Tc (ADAM9 expression “On”), about 2-3 times the amount of s-CD23 was produced compared to cells kept in the presence of Tc (ADAM9 expression “Off”). […] The 33 kDa form of s-CD23 and, in minor amounts, the 25 kDa cleavage fragment were detected by Western blot analyses. […]
(ELISA stands for enzyme-linked immunosorbent assay.)

Experiment [2] addresses T2, ADAM10 (Homo sapiens, UniProt O14672).
T2 sequence (O14672 214-748): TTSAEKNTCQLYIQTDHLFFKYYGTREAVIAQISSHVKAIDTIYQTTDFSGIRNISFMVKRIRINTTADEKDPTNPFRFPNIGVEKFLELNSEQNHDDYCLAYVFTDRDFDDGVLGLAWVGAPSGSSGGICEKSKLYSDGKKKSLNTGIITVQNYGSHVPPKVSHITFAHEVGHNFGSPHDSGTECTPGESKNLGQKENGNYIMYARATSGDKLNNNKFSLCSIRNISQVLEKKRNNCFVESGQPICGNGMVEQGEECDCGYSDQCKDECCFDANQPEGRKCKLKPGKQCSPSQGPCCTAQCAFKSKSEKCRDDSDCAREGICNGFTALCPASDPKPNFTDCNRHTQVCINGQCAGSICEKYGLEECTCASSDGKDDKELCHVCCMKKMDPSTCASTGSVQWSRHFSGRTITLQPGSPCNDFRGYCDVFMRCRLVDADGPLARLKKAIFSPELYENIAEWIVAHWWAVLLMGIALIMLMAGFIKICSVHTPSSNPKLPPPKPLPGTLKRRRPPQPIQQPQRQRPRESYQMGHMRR
As to conditions: stated as known; cited from earlier work.

“TIMP-1: tissue inhibitor of metalloproteinases 1”: the “block of proteolytic release of CD23 from the membrane (formation of s-CD23 by ELISA)” value in experiment [1] is given as “could not be inhibited”. Also, in experiment [2], the “inhibition of ADAM10” value is on record as “inhibited”.

B1: TIMP-3: tissue inhibitor of metalloproteinases 3 (protein, UniProt P35625 24-211, looked up)
Metalloproteinase inhibitor 3: CTCSPSHPQDAFCNSDIVIRAKVVGKKLVKEGPFGTLVYTIKQMKMYRGFTKMPHVQYIHTEASESLCGLKLEVNKYQYLLTGRVYDGKMYTGLCNFVERWDQLTLSQRKGLNYRYHLGCNCKIKSCYYLPCFVTSKNECLWTDMLSNFGYPGYQSKHYACIRQKGGYCSWYRGWAPPDKSIINATDP
As for B1, the “block of proteolytic release of CD23 from the membrane (formation of s-CD23 by ELISA)” value in experiment [1] is on record as “could not be inhibited”. Moreover, in experiment [2], the “inhibition of ADAM10” value is reported as “inhibited”.
